Molecular target: IL-1 receptor (type I) on T24 cells (UniProt P14778)
Experiment: cell-based or functional assay

UniProt P14778, sequence (P14778 18-569 limits assumed): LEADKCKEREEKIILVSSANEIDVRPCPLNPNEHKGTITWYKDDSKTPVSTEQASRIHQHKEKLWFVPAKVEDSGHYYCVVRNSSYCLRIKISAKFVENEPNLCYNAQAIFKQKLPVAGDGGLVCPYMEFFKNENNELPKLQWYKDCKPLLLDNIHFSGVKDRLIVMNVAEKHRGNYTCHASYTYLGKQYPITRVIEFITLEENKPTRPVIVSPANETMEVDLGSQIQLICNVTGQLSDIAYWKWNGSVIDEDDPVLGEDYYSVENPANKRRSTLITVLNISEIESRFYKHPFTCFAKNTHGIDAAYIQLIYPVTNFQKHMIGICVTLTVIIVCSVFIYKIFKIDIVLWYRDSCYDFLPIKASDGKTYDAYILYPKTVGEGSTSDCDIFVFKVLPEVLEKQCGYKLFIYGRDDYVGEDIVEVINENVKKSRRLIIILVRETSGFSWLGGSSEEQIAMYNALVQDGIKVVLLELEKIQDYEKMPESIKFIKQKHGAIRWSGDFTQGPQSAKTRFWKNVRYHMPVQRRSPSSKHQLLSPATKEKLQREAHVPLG

Substance “His-tagged IL-1Ra wild type (without signal peptide) from E. coli (from UniProt P18510 26-177) (ligand)” has an inhibition of IL-1β-induced secretion of IL-8 from T24 cells, at 200 µg/ml of 70%, an inhibition of IL-1β-induced secretion of IL-8 from T24 cells, at 600 µg/ml of 50% and an inhibition of IL-1β-induced secretion of IL-8 from T24 cells, at 1800 µg/ml of 100%. It also gave an inhibition of IL-1β-induced secretion of IL-8 from T24 cells, at 8000 µg/ml of 100%.
“commercial IL-1Ra WT (obtained from Prospec Tany TechnoGene Ltd (Rehovot Israel)) (from UniProt P18510 26-177) (ligand)” was tested, and the inhibition of IL-1β-induced secretion of IL-8 from T24 cells, at 200 µg/ml was > 70% and the inhibition of IL-1β-induced secretion of IL-8 from T24 cells, at 600 µg/ml or above was 100%.
